The experiment has as its target AcGFP1-JAK3 (pAcGFP1-JAK3) (Bos taurus) (UniProt E1BEL4). Put plainly: co-IP; Matchmaker Co-IP system; ProLabel enzymatic activity (luminescence, ProLabel detection kit) in protein samples of HEK cells co-transfected with pAcGFP1-JAK3 and a pProLabel prey; read 25 min after addition of the substrate; against the negative control.

Experimental findings from publication PMC5086056 are described below.

UniProt E1BEL4, sequence (E1BEL4 entry or part of it): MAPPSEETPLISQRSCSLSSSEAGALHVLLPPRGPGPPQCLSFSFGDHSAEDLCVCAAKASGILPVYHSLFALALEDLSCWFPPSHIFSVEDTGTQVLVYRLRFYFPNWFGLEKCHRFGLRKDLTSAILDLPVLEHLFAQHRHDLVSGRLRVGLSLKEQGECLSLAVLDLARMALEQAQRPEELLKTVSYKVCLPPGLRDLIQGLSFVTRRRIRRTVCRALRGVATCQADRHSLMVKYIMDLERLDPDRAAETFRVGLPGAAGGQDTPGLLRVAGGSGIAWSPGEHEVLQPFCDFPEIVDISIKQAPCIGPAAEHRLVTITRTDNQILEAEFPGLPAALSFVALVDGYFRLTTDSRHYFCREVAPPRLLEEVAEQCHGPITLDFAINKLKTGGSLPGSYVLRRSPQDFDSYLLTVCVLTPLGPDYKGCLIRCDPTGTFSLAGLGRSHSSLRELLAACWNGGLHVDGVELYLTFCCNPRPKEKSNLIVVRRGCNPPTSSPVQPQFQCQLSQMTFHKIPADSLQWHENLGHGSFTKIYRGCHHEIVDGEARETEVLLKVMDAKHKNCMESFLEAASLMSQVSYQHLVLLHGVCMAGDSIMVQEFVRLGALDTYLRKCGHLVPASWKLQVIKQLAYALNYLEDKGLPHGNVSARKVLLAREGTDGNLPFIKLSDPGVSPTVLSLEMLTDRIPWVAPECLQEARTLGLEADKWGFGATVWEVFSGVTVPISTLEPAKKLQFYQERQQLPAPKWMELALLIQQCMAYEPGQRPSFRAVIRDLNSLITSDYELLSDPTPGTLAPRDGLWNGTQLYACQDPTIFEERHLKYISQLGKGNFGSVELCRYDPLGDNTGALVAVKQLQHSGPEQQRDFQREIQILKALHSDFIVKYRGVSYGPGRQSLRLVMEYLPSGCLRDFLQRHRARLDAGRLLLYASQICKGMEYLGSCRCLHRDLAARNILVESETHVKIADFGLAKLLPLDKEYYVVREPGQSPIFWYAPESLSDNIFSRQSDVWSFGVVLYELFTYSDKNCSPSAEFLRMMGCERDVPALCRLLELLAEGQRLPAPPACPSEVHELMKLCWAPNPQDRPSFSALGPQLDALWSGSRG

Substance “ProLabel-LEPROTL1 (pProLabel-LEPROTL1) (from UniProt Q32PD8 1-131) (natural protein)” yielded a fold induction in ProLabel enzymatic activity as compared to the negative control of 42 fold.
With “ProLabel-CDKN1B (pProLabel-CDKN1B) (from UniProt A6QLS3 1-198) (natural protein)”, the fold induction in ProLabel enzymatic activity as compared to the negative control is 15 fold.
On to “ProLabel-INHBA (pProLabel-INHBA) (from UniProt P07995 21-425) (natural protein)”, for which the fold induction in ProLabel enzymatic activity as compared to the negative control worked out at 34 fold.
